Reference: article PMC6738421

Key:
[1] = target: Arginyl-tRNA-protein transferase Ate1, isoform Ate1-1 (mouse) (UniProt Q9Z2A5)
[2] = target: Arginyl-tRNA-protein transferase Ate1, isoform Ate1-3 (mouse) (UniProt Q9Z2A5)
Chain of Arginyl-tRNA-protein transferase Ate1, isoform Ate1-3 (mouse) (Q9Z2A5 other isoform, or with tags, fused parts or gaps): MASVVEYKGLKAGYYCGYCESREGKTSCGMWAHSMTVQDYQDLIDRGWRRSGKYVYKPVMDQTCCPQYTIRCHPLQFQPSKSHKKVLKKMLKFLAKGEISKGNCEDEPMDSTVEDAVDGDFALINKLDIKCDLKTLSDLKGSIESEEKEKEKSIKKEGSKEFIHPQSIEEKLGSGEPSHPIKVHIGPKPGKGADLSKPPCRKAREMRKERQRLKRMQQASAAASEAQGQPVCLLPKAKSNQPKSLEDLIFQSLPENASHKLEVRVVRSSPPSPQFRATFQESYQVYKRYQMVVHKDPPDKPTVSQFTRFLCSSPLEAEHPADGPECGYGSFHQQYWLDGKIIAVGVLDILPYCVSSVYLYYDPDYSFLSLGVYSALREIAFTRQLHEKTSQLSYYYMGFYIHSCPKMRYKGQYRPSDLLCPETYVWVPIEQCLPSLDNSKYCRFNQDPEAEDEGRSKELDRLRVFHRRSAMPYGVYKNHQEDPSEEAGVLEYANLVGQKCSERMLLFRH

Chain of BSA (P02769 25-607): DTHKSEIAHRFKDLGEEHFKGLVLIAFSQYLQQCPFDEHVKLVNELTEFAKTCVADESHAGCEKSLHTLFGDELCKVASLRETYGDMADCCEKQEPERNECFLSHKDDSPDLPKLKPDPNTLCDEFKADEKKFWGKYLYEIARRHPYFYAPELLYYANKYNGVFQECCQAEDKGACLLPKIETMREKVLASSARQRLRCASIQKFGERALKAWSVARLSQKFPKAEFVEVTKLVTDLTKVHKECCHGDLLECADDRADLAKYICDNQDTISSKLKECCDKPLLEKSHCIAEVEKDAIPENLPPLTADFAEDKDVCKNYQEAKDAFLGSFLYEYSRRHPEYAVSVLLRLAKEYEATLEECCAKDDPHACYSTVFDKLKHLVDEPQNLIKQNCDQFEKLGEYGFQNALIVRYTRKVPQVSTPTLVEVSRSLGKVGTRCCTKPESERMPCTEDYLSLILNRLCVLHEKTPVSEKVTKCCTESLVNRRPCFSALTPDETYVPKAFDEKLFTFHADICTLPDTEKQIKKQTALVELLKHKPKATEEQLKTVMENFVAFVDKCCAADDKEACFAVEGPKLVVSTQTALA
Chain of Arginyl-tRNA-protein transferase Ate1, isoform Ate1-1 (mouse) (Q9Z2A5 whole entry, canonical isoform): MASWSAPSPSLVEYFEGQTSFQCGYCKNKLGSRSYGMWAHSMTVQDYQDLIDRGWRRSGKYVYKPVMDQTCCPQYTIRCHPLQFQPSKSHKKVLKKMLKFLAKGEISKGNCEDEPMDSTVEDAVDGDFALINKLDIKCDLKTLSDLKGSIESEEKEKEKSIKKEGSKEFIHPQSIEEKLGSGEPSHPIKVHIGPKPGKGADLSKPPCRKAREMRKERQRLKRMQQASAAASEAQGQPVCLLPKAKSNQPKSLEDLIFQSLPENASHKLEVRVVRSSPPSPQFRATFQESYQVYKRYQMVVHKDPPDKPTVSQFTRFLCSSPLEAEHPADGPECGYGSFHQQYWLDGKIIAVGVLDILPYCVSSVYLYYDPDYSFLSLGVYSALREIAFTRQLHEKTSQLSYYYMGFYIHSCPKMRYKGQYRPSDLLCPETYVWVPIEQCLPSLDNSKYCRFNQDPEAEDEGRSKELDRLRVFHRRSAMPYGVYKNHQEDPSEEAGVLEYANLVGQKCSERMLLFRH

Km of arginylation of the substrate by Ate1-1 (enzyme kinetics by ITC) [1]: 33.2 µM
Km of arginylation of the substrate by Ate1-3 (enzyme kinetics by ITC) [2]: 52.5 µM
Substance: BSA (from UniProt P02769 25-607) (natural protein)
